Patent US20230220042A1 (SHANGHAI JIAO TONG UNIVERSITY SCHOOL OF MEDICINE, published 2023)

T1: FcγRIIB (human, UniProt P31994 43-217, biotin-labeled)
T1 construct: extracellular domain; Bought protein; also called CD32b
T1 sequence (looked up): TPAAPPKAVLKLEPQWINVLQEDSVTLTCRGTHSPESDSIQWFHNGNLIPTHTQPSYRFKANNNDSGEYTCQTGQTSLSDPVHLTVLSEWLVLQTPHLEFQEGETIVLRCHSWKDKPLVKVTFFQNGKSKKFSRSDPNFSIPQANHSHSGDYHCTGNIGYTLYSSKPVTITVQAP

T2: FcγRIIA^131H (human, UniProt P12318 34-217, biotin-labeled)
T2 construct: extracellular domain; Bought protein; also called RIIAH
T2 sequence (looked up): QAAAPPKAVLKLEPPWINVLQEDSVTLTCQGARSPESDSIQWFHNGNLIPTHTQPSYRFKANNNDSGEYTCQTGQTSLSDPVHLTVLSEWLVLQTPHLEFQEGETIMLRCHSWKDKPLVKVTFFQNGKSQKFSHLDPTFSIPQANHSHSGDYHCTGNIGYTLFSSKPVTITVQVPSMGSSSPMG

T3: FcγRIIA^131R (human, UniProt P12318 34-217, biotin-labeled)
T3 construct: extracellular domain; Bought protein; also called RIIAR
T3 sequence (looked up): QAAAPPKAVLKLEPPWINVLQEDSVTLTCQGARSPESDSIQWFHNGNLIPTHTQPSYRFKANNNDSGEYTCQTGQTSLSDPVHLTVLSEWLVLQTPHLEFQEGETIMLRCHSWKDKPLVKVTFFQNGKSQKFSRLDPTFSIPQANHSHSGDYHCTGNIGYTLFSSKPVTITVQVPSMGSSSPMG


Columns and labels:
FcγRIIB [1] = target: T1, FcγRIIB; test: ELISA, coated antibody, biotin-FcγR;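 on Absorbance value: antibody coated at 2 µg/mL at 100 µL per well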
FcγRIIIA^158F = target: T4, FcγRIIIA^158F (human, UniProt P08637 17-208, biotin-labeled); test: ELISA, coated antibody, biotin-FcγR;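 on Absorbance value: antibody coated at 2 µg/mL at 100 µL per well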
T4 construct: extracellular domain; Bought protein; also called RIIIAF

FcγRIIA^131H = target: T2, FcγRIIA^131H; test: ELISA, coated antibody, biotin-FcγR;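 on Absorbance value: antibody coated at 2 µg/mL at 100 µL per well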
FcγRI = target: T5, FcγRI (human, UniProt P12314 16-292, biotin-labeled); test: ELISA, coated antibody, biotin-FcγR;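 on Absorbance value: antibody coated at 2 µg/mL at 100 µL per well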
T5 construct: extracellular domain; Bought protein; also called CD64

FcγRIIIA^158V = target: T6, FcγRIIIA^158V (human, UniProt P08637 17-208, biotin-labeled); test: ELISA, coated antibody, biotin-FcγR;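 on Absorbance value: antibody coated at 2 µg/mL at 100 µL per well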
T6 construct: extracellular domain; Bought protein; also called RIIIAV; CD16a 158V

FcγRIIA^131R = target: T3, FcγRIIA^131R; test: ELISA, coated antibody, biotin-FcγR;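 on Absorbance value: antibody coated at 2 µg/mL at 100 µL per well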
FcγRIIB [2] = target: T1, FcγRIIB; test: ELISA; relative affinity to FcγRIIB over that to FcγRIIA131R

T5 sequence (P12314 16-292): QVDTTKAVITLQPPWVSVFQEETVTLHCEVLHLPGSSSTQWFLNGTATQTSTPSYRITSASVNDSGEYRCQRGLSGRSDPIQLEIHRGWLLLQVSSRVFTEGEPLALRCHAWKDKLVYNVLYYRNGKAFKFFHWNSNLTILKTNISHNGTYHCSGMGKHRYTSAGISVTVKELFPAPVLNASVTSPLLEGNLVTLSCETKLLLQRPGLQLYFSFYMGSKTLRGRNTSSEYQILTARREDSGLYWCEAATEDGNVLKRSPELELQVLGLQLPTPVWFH
T4 sequence (P08637 17-208): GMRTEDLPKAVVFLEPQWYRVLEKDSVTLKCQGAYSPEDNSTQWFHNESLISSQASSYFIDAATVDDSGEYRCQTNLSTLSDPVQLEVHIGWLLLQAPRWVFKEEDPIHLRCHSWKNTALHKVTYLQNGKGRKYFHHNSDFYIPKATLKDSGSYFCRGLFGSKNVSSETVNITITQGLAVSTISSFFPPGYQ
T6 sequence (P08637 17-208 F176V): as the sequence (P08637 17-208) above, with F160V counted along it

Binder	Absorbance value (FcγRIIB [1])	Increased factor of RIIB binding compared with wild-type IgG2 (FcγRIIB [1])	Relative binding affinity RIIB/G1 (FcγRIIB [1])	Absorbance value (FcγRIIIA^158F)	Relative binding affinity RIIIAF/G1 (FcγRIIIA^158F)	Absorbance value (FcγRIIA^131H)	Relative binding affinity RIIAH/G1 (FcγRIIA^131H)	Absorbance value (FcγRI)	Relative binding affinity RI/G1 (FcγRI)	Absorbance value (FcγRIIIA^158V)	Relative binding affinity RIIIAV/G1 (FcγRIIIA^158V)	Absorbance value (FcγRIIA^131R)	Relative binding affinity RIIAR/G1 (FcγRIIA^131R)	RIIB/RIIAR (FcγRIIB [2])
anti-human OX40 IgG2 antibody Mut_27 (V266L/S267E/H268S/P271V) (antibody, name in EU numbering, Substitutions in Eu numbering; entries include an unstated signal peptide) heavy: QVQLQESGPGLVKPSGTLSLTCAVSGGSISSSIWWSWVRQPPGKGLEWIGEIHHSGNTNCNPSLKSRVTISIDKSKNQFSLKLTSVTAADTAVYYCARAGTGTTLDYWGQGTLVTVSSASTKGPSVFPLAPCSRSTSESTAALGCLVKDYFPEPVTVSWNSGALTSGVHTFPAVLQSSGLYSLSSVVTVPSSNFGTQTYTCNVDHKPSNTKVDKTVERKCCVECPPCPAPPVAGPSVFLFPPKPKDTLMISRTPEVTCVVVDLESEDVEVQFNWYVDGVEVHNAKTKPREEQFNSTFRVVSVLTVVHQDWLNGKEYKCKVSNKGLPAPIEKTISKTKGQPREPQVYTLPPSREEMTKNQVSLTCLVKGFYPSDIAVEWESNGQPENNYKTTPPMLDSDGSFFLYSKLTVDKSRWQQGNVFSCSVMHEALHNHYTQKSLSLSPGK light: EIVLTQSPGTLSLSPGERATLSCRASQSVSGDYLAWYQQKLGQAPRLLIYGASIRATGIPDRFSGSGSGTDFTLTISKLEPEDFAVYYCQQYGSSPLTFGGGTKVEIKRTVAAPSVFIFPPSDEQLKSGTASVVCLLNNFYPREAKVQWKVDNALQSGNSQESVTEQDSKDSTYSLSSTLTLSKADYEKHKVYACEVTHQGLSSPVTKSFNRGEC	0.7 A650	9.29 fold	0.92 ratio	0.09 A650	0.49 ratio	0.48 A650	0.84 ratio	0.18 A650	0.07 ratio	0.1 A650	0.11 ratio	0.28 A650	1.06 ratio	0.87 ratio
anti-human OX40 IgG2 antibody Mut_8 (V266L/L328W) (antibody, name in EU numbering, Substitutions in Eu numbering; entries include an unstated signal peptide) heavy: QVQLQESGPGLVKPSGTLSLTCAVSGGSISSSIWWSWVRQPPGKGLEWIGEIHHSGNTNCNPSLKSRVTISIDKSKNQFSLKLTSVTAADTAVYYCARAGTGTTLDYWGQGTLVTVSSASTKGPSVFPLAPCSRSTSESTAALGCLVKDYFPEPVTVSWNSGALTSGVHTFPAVLQSSGLYSLSSVVTVPSSNFGTQTYTCNVDHKPSNTKVDKTVERKCCVECPPCPAPPVAGPSVFLFPPKPKDTLMISRTPEVTCVVVDLSHEDPEVQFNWYVDGVEVHNAKTKPREEQFNSTFRVVSVLTVVHQDWLNGKEYKCKVSNKGWPAPIEKTISKTKGQPREPQVYTLPPSREEMTKNQVSLTCLVKGFYPSDIAVEWESNGQPENNYKTTPPMLDSDGSFFLYSKLTVDKSRWQQGNVFSCSVMHEALHNHYTQKSLSLSPGK light: EIVLTQSPGTLSLSPGERATLSCRASQSVSGDYLAWYQQKLGQAPRLLIYGASIRATGIPDRFSGSGSGTDFTLTISKLEPEDFAVYYCQQYGSSPLTFGGGTKVEIKRTVAAPSVFIFPPSDEQLKSGTASVVCLLNNFYPREAKVQWKVDNALQSGNSQESVTEQDSKDSTYSLSSTLTLSKADYEKHKVYACEVTHQGLSSPVTKSFNRGEC	1.07 A650	14.3 fold	1.42 ratio	0.08 A650	0.44 ratio	0.52 A650	0.9 ratio	0.14 A650	0.05 ratio	0.07 A650	0.07 ratio	0.34 A650	1.3 ratio	1.09 ratio
anti-human OX40 IgG2 antibody Mut_28 (P233G/S267E/S298G) (antibody, Substitutions in Eu numbering; entries include an unstated signal peptide) heavy: QVQLQESGPGLVKPSGTLSLTCAVSGGSISSSIWWSWVRQPPGKGLEWIGEIHHSGNTNCNPSLKSRVTISIDKSKNQFSLKLTSVTAADTAVYYCARAGTGTTLDYWGQGTLVTVSSASTKGPSVFPLAPCSRSTSESTAALGCLVKDYFPEPVTVSWNSGALTSGVHTFPAVLQSSGLYSLSSVVTVPSSNFGTQTYTCNVDHKPSNTKVDKTVERKCCVECPPCPAPGVAGPSVFLFPPKPKDTLMISRTPEVTCVVVDVEHEDPEVQFNWYVDGVEVHNAKTKPREEQFNGTFRVVSVLTVVHQDWLNGKEYKCKVSNKGLPAPIEKTISKTKGQPREPQVYTLPPSREEMTKNQVSLTCLVKGFYPSDIAVEWESNGQPENNYKTTPPMLDSDGSFFLYSKLTVDKSRWQQGNVFSCSVMHEALHNHYTQKSLSLSPGK light: EIVLTQSPGTLSLSPGERATLSCRASQSVSGDYLAWYQQKLGQAPRLLIYGASIRATGIPDRFSGSGSGTDFTLTISKLEPEDFAVYYCQQYGSSPLTFGGGTKVEIKRTVAAPSVFIFPPSDEQLKSGTASVVCLLNNFYPREAKVQWKVDNALQSGNSQESVTEQDSKDSTYSLSSTLTLSKADYEKHKVYACEVTHQGLSSPVTKSFNRGEC	0.88 A650	11.8 fold	1.17 ratio	0.08 A650	0.44 ratio	0.14 A650	0.24 ratio	0.13 A650	0.05 ratio	0.08 A650	0.08 ratio	0.35 A650	1.35 ratio	0.87 ratio
anti-human OX40 IgG2 antibody Mut_30 (V234Q/V266L/S267E/H268S/E269V) (antibody, Substitutions in Eu numbering; entries include an unstated signal peptide) heavy: QVQLQESGPGLVKPSGTLSLTCAVSGGSISSSIWWSWVRQPPGKGLEWIGEIHHSGNTNCNPSLKSRVTISIDKSKNQFSLKLTSVTAADTAVYYCARAGTGTTLDYWGQGTLVTVSSASTKGPSVFPLAPCSRSTSESTAALGCLVKDYFPEPVTVSWNSGALTSGVHTFPAVLQSSGLYSLSSVVTVPSSNFGTQTYTCNVDHKPSNTKVDKTVERKCCVECPPCPAPPQAGPSVFLFPPKPKDTLMISRTPEVTCVVVDLESVDPEVQFNWYVDGVEVHNAKTKPREEQFNSTFRVVSVLTVVHQDWLNGKEYKCKVSNKGLPAPIEKTISKTKGQPREPQVYTLPPSREEMTKNQVSLTCLVKGFYPSDIAVEWESNGQPENNYKTTPPMLDSDGSFFLYSKLTVDKSRWQQGNVFSCSVMHEALHNHYTQKSLSLSPGK light: EIVLTQSPGTLSLSPGERATLSCRASQSVSGDYLAWYQQKLGQAPRLLIYGASIRATGIPDRFSGSGSGTDFTLTISKLEPEDFAVYYCQQYGSSPLTFGGGTKVEIKRTVAAPSVFIFPPSDEQLKSGTASVVCLLNNFYPREAKVQWKVDNALQSGNSQESVTEQDSKDSTYSLSSTLTLSKADYEKHKVYACEVTHQGLSSPVTKSFNRGEC	0.8 A650	10.7 fold	1.06 ratio	0.06 A650	0.33 ratio	0.18 A650	0.32 ratio	0.12 A650	0.05 ratio	0.06 A650	0.07 ratio	0.26 A650	1.01 ratio	1.05 ratio
